Assay results taken from US20220259289A1 (Janssen / Centocor, published 2022).

Columns and labels:
human serum albumin [1] = biological target: T1, human serum albumin (human, UniProt P02768 25-609); assay: ELISA, negative control HSA
T1 construct: Negative control of the ELISA; also called HSA
Method: (§1) Streptavidin-coated Maxisorp plates (Nunc catalog 436110) were blocked for 1 h in Starting Block T20 (Pierce) and then coated with biotinylated CD137 (using same antigen as in panning) or negative controls (an unrelated Fc-fused recombinant protein and human serum albumin) for 1 h. Plates were rinsed with TBST and diluted lysate was applied to plates for 1 h. Following additional rinses, wells were treated with HRP-conjugated anti-Centyrin antibody (PAB25) for 1 h and then assayed with POD (Roche catalog 11582950001).
T1 sequence (P02768 25-609 limits assumed): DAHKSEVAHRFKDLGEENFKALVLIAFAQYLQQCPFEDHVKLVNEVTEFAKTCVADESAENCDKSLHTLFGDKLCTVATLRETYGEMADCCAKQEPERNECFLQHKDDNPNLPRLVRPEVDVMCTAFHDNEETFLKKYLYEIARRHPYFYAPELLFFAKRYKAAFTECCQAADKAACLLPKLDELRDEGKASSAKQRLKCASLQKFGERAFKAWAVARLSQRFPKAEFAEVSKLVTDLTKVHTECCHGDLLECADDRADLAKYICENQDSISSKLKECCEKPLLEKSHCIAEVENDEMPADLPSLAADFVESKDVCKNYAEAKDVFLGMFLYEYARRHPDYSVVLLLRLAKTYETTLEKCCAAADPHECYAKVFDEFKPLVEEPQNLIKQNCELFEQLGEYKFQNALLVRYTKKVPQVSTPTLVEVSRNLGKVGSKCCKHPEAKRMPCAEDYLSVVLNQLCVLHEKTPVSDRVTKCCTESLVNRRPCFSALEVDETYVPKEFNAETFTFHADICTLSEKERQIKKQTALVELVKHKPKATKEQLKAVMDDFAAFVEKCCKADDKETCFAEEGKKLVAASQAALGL

[2] = biological target: unrelated Fc-fused recombinant protein; assay: ELISA, negative control Fc protein
[3] = biological target: extracellular domain of human CD137 on the surface of CHO-K1 cells (human, UniProt Q07011 24-186); assay: flow cytometry on CHO-K1 cells with human CD137 ECD
Method: Cell surface binding was analyzed via flow cytometry. Cenyrins were prepared at a maximal concentration of 500 nM in the presence of 125 nM anti His-mIgG1 antibody and then serially diluted in PBS/1% FCS buffer. Samples were then applied to approx 100 000 CHO-Kl cells expressing the extracellular domain of human CD137 on their surface. Unbound Centyrin/Antibody complexes were washed away and bound FN3 domains were detected by the addition of goat anti mouse-FITC labeled antibody. Samples were then aquired by flow cytometry. Subsequently, Mean flurescence intensity was plotted against the log Centyrin concentration and EC50 values were calculated by nonlinear regression using GraphPad Prism.

[4] = biological target: T2, recombinant biotinylated CD137 protein (Fc-fusion protein, R&D Systems 838-4B) (human, UniProt Q07011 24-186, biotinylated, sites not stated); assay: ELISA, lysate on biotinylated CD137-Fc
T2 construct: Bought Fc fusion; also called CD137-Fc
Method: as §1

[5] = biological target: unrelated Fc-fused recombinant protein (negative control); assay: ELISA, bacterial lysate on plate-bound antigen, luminescence
[6] = biological target: T3, recombinant biotinylated human CD137 protein (Fc-fusion protein, R&D Systems 838-4B) (human, UniProt Q07011 24-186, biotinylated (site not stated)); assay: as above
T3 construct: Bought Fc fusion; The ELISA used the same antigen as the panning; also called CD137-Fc; biotinylated CD137; not shown: Fc part of the bought fusion protein
Summary of the method: (§2)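 Biotinylated CD137-Fc, an unrelated Fc-fusion protein or human serum albumin captured 1 h on streptavidin plates blocked in Starting Block T20; diluted bacterial lysate applied 1 h. Bound binders detected with HRP-conjugated anti-Centyrin antibody (PAB25) for 1 h, then POD substrate read-out.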

human serum albumin [7] = biological target: T4, human serum albumin (human, UniProt P02768 25-609); assay: as above
T4 construct: Negative control antigen of the screening ELISA; also called HSA
Summary of the method: as §2
T4 sequence (P02768 25-609 limits assumed): as above

Row | ELISA HSA (RLU) (human serum albumin [1]) | ELISA Fc Control (RLU) [2] | EC50 [3] | ELISA CD137 (RLU) [4] | ELISA Fc Control (RLU) [5] | ELISA CD137-Fc (RLU) [6] | ELISA HSA (RLU) (human serum albumin [7]) | Binder
1 | 480 RLU | 1520 RLU | 1.21 nM | 8.12e+06 RLU |  |  |  | ISOP193AR9P1B10 (designed binder, not shown: small tags and cut ends) LPAPKNLVVSRVTEDSARLSWAFQWHIFDSFLIQYQESEKVGEAIVLTVPGSERSYDLTGLKPGTEYTVSIYGVGRHYTVYDSNPLSAIFTT
2 | 480 RLU | 960 RLU | 13.9 nM | 5.74e+06 RLU |  |  |  | ISOP193AR9P1B4 (designed binder, not shown: small tags and cut ends) LPAPKNLVVSRVTEDSARLSWRDLQYHTFDSFLIQYQESEKVGEAIVLTVPGSERSYDLTGLKPGTEYTVSIYGVGRHYTVYDSNPLSAIFTT
3 | 560 RLU | 1360 RLU | 27.5 nM | 5.18e+06 RLU |  |  |  | ISOP193ER9P1H2 (designed binder, not shown: small tags and cut ends) LPAPKNLVVSRVTEDSARLSWTAPDAAFDSFRISYLEDVYYGEAIVLTVPGSERSYDLTGLKPGTEYHVGIHGVKGGIDSFPLSAIFTT
4 | 960 RLU | 2240 RLU | 10.5 nM | 5.89e+06 RLU |  |  |  | ISOP193AR9P1G11 (designed binder, not shown: small tags and cut ends) LPAPKNLVVSRVTEDSARLSWTNEQITKYGFDSFLIQYQESEKVGEAIVLTVPGSERSYDLTGLKPGTEYTVSIYGVGRHYTVYDSNPLSAIFTT
5 | 560 RLU | 1600 RLU | 218 nM | 4.71e+06 RLU |  |  |  | ISOP193AR9P1F9 (designed binder, not shown: small tags and cut ends) LPAPKNLVVSRVTEDSARLSWPLFASDLNIFDSFLIQYQESEKVGEAIVLTVPGSERSYDLTGLKPGTEYTVSIYGVGRHYTVYDSNPLSAIFTT
6 |  | 1440 RLU | 18.7 nM |  |  |  |  | ISOP193ER9P1G11 (designed binder, not shown: small tags and cut ends) LPAPKNLVVSRVTEDSARLSWTAPDAAFDSFDIYYFEHPVGGEAIVLTVPGSERSYDLTGLKPGTEYLVTIYGVKGGYLSMPLSAIFTT
7 | 800 RLU | 2000 RLU | 72.8 nM | 2.42e+06 RLU |  |  |  | ISOP193FR9P1H9 (designed binder, not shown: small tags and cut ends) LPAPKNLVVSRVTEDSARLSWTAPDAAFDSFEIYYDELRNPGEAIVLTVPGSERSYDLTGLKPGTEYAVTIYGVKGGRYSPPLSAIFTT
8 | 400 RLU | 1040 RLU | 12.4 nM | 1.67e+07 RLU |  |  |  | ISOP193ER9P1C8 (designed binder, not shown: small tags and cut ends) LPAPKNLVVSRVTEDSARLSWTAPDAAFDSFDIYYFEHPVGGEAIVLTVPGSERSYDLTGLKPGTEYLVTIYGVKGGTYSLPLSAIFTT
9 | 480 RLU | 1200 RLU | 25 nM | 1.51e+07 RLU |  |  |  | ISOP193ER9P1F7 (designed binder, not shown: small tags and cut ends) LPAPKNLVVSRVTEDSAHLSWTAPDAAFDSFDIYYFEHPVGGEAIVLTVPGSERSYDLTGLKPGTEYLVTIYGVKGGYLSMPLSAIFTT
10 | 640 RLU | 1840 RLU | 26.9 nM | 1.4e+07 RLU |  |  |  | ISOP193FR9P1G4 (designed binder, not shown: small tags and cut ends) LPAPKNLVVSRVTEDSARLSWTAPDAAFDSFEIYYFENELGGEAIVLTVPGSERSYDLTGLKPGTEYLVTIYGVKGGDWSDPLSAIFTT
11 | 560 RLU | 1360 RLU | 3.27 nM | 1.82e+07 RLU |  |  |  | ISOP193HR9P1C8 (designed binder, not shown: small tags and cut ends) LPAPKNLVVSRVTEDSARLSWTAPDAAFDSFEIYYFELRLGGEAIVLTVPGSERSYDLTGLKPGTEYLVTIYGVKGGGYSTPLSAIFTT
12 | 400 RLU | 1440 RLU | 17 nM | 1.43e+07 RLU |  |  |  | ISOP193ER9P1A8 (designed binder, not shown: small tags and cut ends) LPAPKNLVVSRVTEDSARLSWTAPDAAFDSLDIYYFEHPVGGEAIVLTVPGSERSYDLTGLKPGTEYLVTIYGVKGGYLSMPLSAIFTT
13 | 640 RLU | 1360 RLU | 184 nM | 2.08e+06 RLU |  |  |  | ISOP193ER9P1H11 (designed binder, not shown: small tags and cut ends) LPAPKNLVVSRVTEDSARLSWTAPDAAFDSFDIYYFEHPVGGEAIVLTVPGSERSYDLTGLKPGTEYLVAIYGVKGGVFSHPLSAIFTT
14 | 480 RLU | 880 RLU | 17.7 nM | 1.64e+07 RLU |  |  |  | ISOP193ER9P1E8 (designed binder, not shown: small tags and cut ends) LPAPKNLVVSRVTEDSARLSWTAPDAAFDSFDIYYFEHPVGGEAIVLTVPGSERSYDLTGLKPGTEYLVTIYGVKGGELSKPLSAIFTT
15 | 640 RLU | 1200 RLU | 10.6 nM | 1.28e+07 RLU |  |  |  | ISOP193ER9P1A11 (designed binder, not shown: small tags and cut ends) LPAPKNLVVSRVTEDSARLSWTAPDAAFDSFAIQYQEYVAHGEAIVLTVPGSERSYDLTGLKPGTEYHVRISGVKGGGVSWPLSAIFTT
16 | 480 RLU | 1680 RLU | 279 nM | 1.26e+07 RLU |  |  |  | ISOP193ER9P1E4 (designed binder, not shown: small tags and cut ends) LPAPKNLVVSRVTEDSARLSWTAPDAAFDSFAIIYQEYVKSGEAIVLTVPGSERSYDLTGLKPGTEYHVRIGGVKGGLLSLPLSAIFTT
17 | 400 RLU | 1200 RLU | 7.34 nM | 1.27e+07 RLU |  |  |  | ISOP193ER9P1B5 (designed binder, not shown: small tags and cut ends) LPAPKNLVVSRVTEDSARLSWTAPDAAFDSFAIQYQEYVAHGEAIVLTVPGSERSYDLTGLKPGTEYHVRISGVKGGGVSWPLSAIVTT
18 |  |  |  |  | 320 RLU | 1.34e+06 RLU | 320 RLU | ISOP120GR5P1G3 (designed binder, not shown: small tags and cut ends, FN3 domain (Centyrin); tested as E. coli lysate) LPAPKNLVVSRVTEDSARLSWTAPDAAFDSFYIRYWEFCHSGEAIELSVPGSERSYDLTGLKPGTEYFVRIVGVKGGRVSLPLGAKFTT
19 |  |  |  |  | 480 RLU | 485000 RLU | 560 RLU | ISOP120BR5P1G11 (designed binder, not shown: small tags and cut ends, FN3 domain (Centyrin); tested as E. coli lysate) LPAPKNLVVSRVTEDSARLSWTKRHFYTFDSFLIQYQESEKVGEAIVLTVPGSERSYYLTGLKPGTENTVSIYGVHGNHPYTDAPANPLSAIFTT
20 |  |  |  |  | 320 RLU | 1.02e+06 RLU | 320 RLU | ISOP120GR5P1E1 (designed binder, not shown: small tags and cut ends, FN3 domain (Centyrin); tested as E. coli lysate) LPAPKNLVVSRVTEDSARLSWTAPDAAFDSFIIQYAEDSSWGEAINLHVPGSERSYDLTGLKPGTEYHVHIYGVKGGEASNPLWAWFTT
21 | 1200 RLU | 2640 RLU | 134 nM | 9.73e+06 RLU |  |  |  | ISOP193BR9P1B10 (designed binder, not shown: small tags and cut ends) LPAPKNLVVSRVTEDSARLSWAWNRHDFDSFLIQYQESEKVGEAIVLTVPGSERSYDLTGLKPGTEYTVSIYGVHWTVLRPFIDSNPLSAIFTT
22 |  |  |  |  | 36200 RLU | 573000 RLU | 26600 RLU | ISOP120BR5P1A10 (designed binder, not shown: small tags and cut ends, FN3 domain (Centyrin); tested as E. coli lysate) LPAPKNLVVSRVTEDSARLSWTEEDITHLRFDSFLIQYQESEKVGEAIVLTVPGSERSYDLTGLKPGTEYTVSIYGVYWTWWVRWNSNPLSAIFTT
